Source: patent US20050282743A1, “Molecular interactions in cells” (Arbor Vita Corporation, priority 2001, published 2005)

Columns and labels:
[1] = target: T1, GST-MUPP1 PDZ domain 10 (Homo sapiens (Human)), O75970; assay: G assay titration, PDZ 1 ug/ml
T1 chain: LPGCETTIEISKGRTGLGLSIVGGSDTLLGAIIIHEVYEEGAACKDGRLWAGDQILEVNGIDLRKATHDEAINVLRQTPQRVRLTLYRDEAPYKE

[2] = target: T2, GST-Shank 1 PDZ domain 1 (Homo sapiens (Human)), Q9UPX8; assay: G assay titration, PDZ 1 ug/ml
T2 chain: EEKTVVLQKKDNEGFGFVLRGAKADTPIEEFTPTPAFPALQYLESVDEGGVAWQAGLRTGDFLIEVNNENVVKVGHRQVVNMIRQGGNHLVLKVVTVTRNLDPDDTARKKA

[3] = target: T3, GST-Atrophin-1 Interacting Protein PDZ domain 1 (Rattus norvegicus (Rat)), O88382; assay: G assay titration, PDZ 1 ug/ml
[4] = target: T4, GST-ZO-1 PDZ domain 1 (Rattus norvegicus (Rat)), A0A0G2; assay: G assay titration, PDZ 1 ug/ml
T4 chain: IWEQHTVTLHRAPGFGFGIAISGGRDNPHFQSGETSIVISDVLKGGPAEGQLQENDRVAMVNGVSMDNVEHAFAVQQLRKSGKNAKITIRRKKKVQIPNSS

[5] = target: T5, GST-ZO-2 PDZ domain 1 (Homo sapiens (Human)), Q9UDY2; assay: G assay titration, PDZ 1 ug/ml
T5 chain: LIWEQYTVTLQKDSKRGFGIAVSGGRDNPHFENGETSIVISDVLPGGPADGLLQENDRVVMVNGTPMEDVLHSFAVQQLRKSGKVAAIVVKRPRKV

[6] = target: GST-PIST PDZ domain 1 (Mus musculus (Mouse)), Q8BH60; assay: G assay titration, PDZ 0.5 ug/ml
[7] = target: T5, GST-ZO-2 PDZ domain 1 (Homo sapiens …); assay: G assay with desipramine or nortryptilline against no drug
[8] = target: GST-KIAA1634 PDZ domain 1 (Homo sapiens (Human)), Q5TCQ9; assay: G assay titration, PDZ 0.3 ug/ml
[9] = target: T6, GST-BAI-1 Associated Protein PDZ domain 2 (Mus musculus (Mouse)), Q6RHR9; assay: G assay titration, PDZ 0.1 ug/ml
[10] = target: T1, GST-MUPP1 PDZ domain 10 (Homo sapiens …); assay: G' assay; note: key of the grades not given here
[11] = target: GST-KIAA1634 PDZ domain 1 (Homo sapiens (Human)), Q5TCQ9; assay: G' assay; note: key of the grades not given here
[12] = target: T2, GST-Shank 1 PDZ domain 1 (Homo sapiens …); assay: G' assay; note: key of the grades not given here
[13] = target: T3, GST-Atrophin-1 Interacting Protein PDZ …; assay: G' assay; note: key of the grades not given here
[14] = target: T7, GST-EZRIN Binding Protein 50 PDZ domain 2 (Homo sapiens (Human)), O14745; assay: G' assay; note: key of the grades not given here
T7 chain: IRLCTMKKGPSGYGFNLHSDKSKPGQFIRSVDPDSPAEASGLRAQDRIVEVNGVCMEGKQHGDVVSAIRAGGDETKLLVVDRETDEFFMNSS

[15] = target: T4, GST-ZO-1 PDZ domain 1 (Rattus …); assay: G' assay; note: key of the grades not given here
[16] = target: T8, GST-TIP1 PDZ domain 1 (Table 9 insert) (Homo sapiens (Human)), O14907; assay: G' assay; note: key of the grades not given here
T8 chain: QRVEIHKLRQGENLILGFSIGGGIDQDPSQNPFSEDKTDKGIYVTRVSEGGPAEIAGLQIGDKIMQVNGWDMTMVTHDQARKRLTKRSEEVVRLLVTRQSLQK

[17] = target: T9, GST-EZRIN Binding Protein 50 PDZ domain 1 (Homo sapiens (Human)), O14745; assay: G' assay; note: key of the grades not given here
T9 chain: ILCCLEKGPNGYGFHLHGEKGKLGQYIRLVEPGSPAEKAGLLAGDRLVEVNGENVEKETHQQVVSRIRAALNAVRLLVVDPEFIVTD

[18] = target: T10, GST-INADL PDZ domain 8 (Homo sapiens (Human)), Q8NI35; assay: G' assay; note: key of the grades not given here
T10 chain: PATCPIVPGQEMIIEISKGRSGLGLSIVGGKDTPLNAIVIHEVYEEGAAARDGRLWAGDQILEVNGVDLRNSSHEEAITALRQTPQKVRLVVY

[19] = target: T5, GST-ZO-2 PDZ domain 1 (Homo sapiens …); assay: G' assay; note: key of the grades not given here
[20] = target: GST-PIST PDZ domain 1 (Mus musculus (Mouse)), Q8BH60; assay: G' assay; note: key of the grades not given here
[21] = target: T11, GST-KIAA0807(S) PDZ domain 1 (Homo sapiens (Human)), Q6P0Q8; assay: G' assay; note: key of the grades not given here
T11 chain: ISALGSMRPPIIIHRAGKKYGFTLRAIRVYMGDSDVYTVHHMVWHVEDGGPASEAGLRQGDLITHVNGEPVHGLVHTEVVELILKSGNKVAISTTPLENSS

[22] = target: T6, GST-BAI-1 Associated Protein PDZ domain …; assay: G' assay; note: key of the grades not given here
[23] = target: T12, GST-Outer Membrane PDZ domain 1 (Homo sapiens (Human)), P57105; assay: G' assay; note: key of the grades not given here
T12 chain: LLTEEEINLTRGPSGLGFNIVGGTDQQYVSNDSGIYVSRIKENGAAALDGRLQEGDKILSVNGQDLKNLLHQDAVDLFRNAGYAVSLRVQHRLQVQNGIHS

[24] = target: T13, GST-NeDLG PDZ domains 1, 2, Q92796; assay: G' assay
T13 chain: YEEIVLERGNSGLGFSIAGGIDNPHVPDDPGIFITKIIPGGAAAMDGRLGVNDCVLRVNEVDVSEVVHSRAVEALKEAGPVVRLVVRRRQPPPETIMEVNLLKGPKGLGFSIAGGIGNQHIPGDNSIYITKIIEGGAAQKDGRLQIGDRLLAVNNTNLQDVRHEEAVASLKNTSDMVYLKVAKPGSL

[25] = target: T14, GST-NOS1 PDZ domain 1 (Homo sapiens (Human)), P29475; assay: G' assay; settings: remark: other sources report otherwise; note: key of the grades not given here
T14 chain: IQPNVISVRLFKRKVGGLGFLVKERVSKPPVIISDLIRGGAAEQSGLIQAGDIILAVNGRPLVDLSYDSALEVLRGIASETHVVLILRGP

[26] = target: GST-DLG1 PDZ domains 1, 2 (Homo sapiens), Q12959; assay: G' assay; note: key of the grades not given here
[27] = target: T15, GST-Shank 3 PDZ domain 1 (human (hypothetical, computer cloned)), Q9BYB0; assay: G' assay; note: key of the grades not given here
T15 chain: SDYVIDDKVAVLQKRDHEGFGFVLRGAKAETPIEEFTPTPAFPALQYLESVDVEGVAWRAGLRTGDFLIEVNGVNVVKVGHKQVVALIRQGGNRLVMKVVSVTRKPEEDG

[28] = target: GST-KIAA807 [GST: P08515]; assay: G' assay
[29] = target: GST-PSD95 PDZ domains 1, 2, 3 (Homo sapiens), P78352; assay: G' assay; note: key of the grades not given here
[30] = target: T11, GST-KIAA0807(S) PDZ domain 1 (Homo …); assay: G assay titration, PDZ 5 ug/ml
[31] = target: GST-KIAA807 [GST: P08515]; assay: G assay titration, PDZ 5 ug/ml
[32] = target: T16, GST-FLJ 10324 PDZ domain 1 [GST: P08515]; assay: G assay titration, PDZ 1 ug/ml
T16 chain: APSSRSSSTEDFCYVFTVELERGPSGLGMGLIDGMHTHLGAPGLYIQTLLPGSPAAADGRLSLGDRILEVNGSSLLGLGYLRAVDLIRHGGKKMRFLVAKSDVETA

[33] = target: T17, GST-ZO-1 PDZ domain 2 (Rattus norvegicus (Rat)), A0A0G2; assay: G' assay; note: key of the grades not given here
T17 chain: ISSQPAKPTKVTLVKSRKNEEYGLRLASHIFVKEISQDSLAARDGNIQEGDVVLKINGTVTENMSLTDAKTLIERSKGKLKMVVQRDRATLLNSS

[34] = target: T18, GST-HEMBA 1003117 PDZ domain 1 (Homo sapiens (Human)), Q96JH8; assay: G' assay; note: key of the grades not given here
T18 chain: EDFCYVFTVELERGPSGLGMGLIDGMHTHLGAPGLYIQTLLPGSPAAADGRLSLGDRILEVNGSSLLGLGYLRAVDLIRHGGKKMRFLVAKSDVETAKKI

[35] = target: T19, GST-PICK1 PDZ domain 1 (Bos taurus (Bovine)), Q2T9M1; assay: G' assay; note: key of the grades not given here
T19 chain: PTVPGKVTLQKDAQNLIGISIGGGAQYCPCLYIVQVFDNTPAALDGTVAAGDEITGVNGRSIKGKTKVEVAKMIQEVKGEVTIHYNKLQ

[36] = target: T16, GST-FLJ 10324 PDZ domain 1 [GST: P08515]; assay: G' assay
[37] = target: T20, GST-PTPL1 PDZ domain 4 (Homo sapiens (Human)), Q12923; assay: G' assay; note: key of the grades not given here
T20 chain: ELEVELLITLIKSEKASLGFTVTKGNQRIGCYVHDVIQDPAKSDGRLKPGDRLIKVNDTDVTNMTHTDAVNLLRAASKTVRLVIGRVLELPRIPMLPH

[38] = target: GST-KIAA1634 PDZ domain 1 (Homo sapiens (Human)), Q5TCQ9; assay: G assay titration, PDZ 5 ug/ml
[39] = target: T18, GST-HEMBA 1003117 PDZ domain 1 (Homo …); assay: G assay titration, PDZ 5 ug/ml
[40] = target: T19, GST-PICK1 PDZ domain 1 (Bos taurus …); assay: G assay titration, PDZ 5 ug/ml
[41] = target: T20, GST-PTPL1 PDZ domain 4 (Homo sapiens …); assay: G assay titration, PDZ 5 ug/ml

Sequence of GST-KIAA1634 PDZ domain 1 (Homo sapiens (Human)), Q5TCQ9 (Q5TCQ9 401-502): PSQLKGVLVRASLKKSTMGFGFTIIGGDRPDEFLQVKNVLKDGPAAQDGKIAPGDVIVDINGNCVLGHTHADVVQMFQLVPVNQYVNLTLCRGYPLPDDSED
Sequence of GST-KIAA807 [GST: P08515] (P08515 whole entry, the tested form may be a part): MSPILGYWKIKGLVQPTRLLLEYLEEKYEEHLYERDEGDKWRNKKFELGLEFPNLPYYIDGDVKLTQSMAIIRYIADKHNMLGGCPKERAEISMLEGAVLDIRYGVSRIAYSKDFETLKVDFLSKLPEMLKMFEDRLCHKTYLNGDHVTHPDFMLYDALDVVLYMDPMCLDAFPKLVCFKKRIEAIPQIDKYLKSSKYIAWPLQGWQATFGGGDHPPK
T3 sequence (O88382 408-511): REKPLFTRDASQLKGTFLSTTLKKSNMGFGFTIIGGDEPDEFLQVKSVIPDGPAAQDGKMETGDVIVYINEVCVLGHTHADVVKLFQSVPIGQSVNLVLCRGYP
T6 sequence (Q6RHR9 455-558): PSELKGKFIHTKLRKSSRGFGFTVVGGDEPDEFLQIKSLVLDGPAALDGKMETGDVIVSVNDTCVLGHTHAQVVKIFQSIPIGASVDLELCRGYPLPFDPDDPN
Sequence of GST-PSD95 PDZ domains 1, 2, 3 (Homo sapiens), P78352 (P78352 62-395): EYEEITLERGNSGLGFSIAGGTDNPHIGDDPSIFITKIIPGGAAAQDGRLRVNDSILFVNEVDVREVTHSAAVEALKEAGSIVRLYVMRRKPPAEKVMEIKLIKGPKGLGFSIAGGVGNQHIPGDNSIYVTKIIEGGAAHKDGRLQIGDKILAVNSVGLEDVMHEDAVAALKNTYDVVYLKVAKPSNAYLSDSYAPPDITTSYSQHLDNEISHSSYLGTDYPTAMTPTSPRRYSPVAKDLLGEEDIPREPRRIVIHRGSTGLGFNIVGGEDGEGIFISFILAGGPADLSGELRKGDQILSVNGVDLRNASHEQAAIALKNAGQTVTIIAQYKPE

TREDIYVNYPTFSRRPKTRV (modifications not checked) [DNAM-1]
Kd [1]: 2.5 µM
Kd [2]: 5 µM
Kd [3]: 3 µM
Kd [4]: 5 µM
Kd [5]: 3 µM
Kd [6]: 2.5 µM
fold decrease of binding with drug [7]: 4.2 fold
Kd [8]: 1 µM
Kd [9]: 4 µM
Classification [10]: 4 A450 class
Classification [11]: 5 A450 class
Classification [12]: 5 A450 class
Classification [13]: 3 A450 class
Classification [14]: 1 A450 class
Classification [15]: 2 A450 class
Classification [16]: 1 A450 class
Classification [17]: 1 A450 class
Classification [18]: 5 A450 class
Classification [19]: 3 A450 class
Classification [20]: 4 A450 class
Classification [21]: 3 A450 class
Classification [22]: 5 A450 class
Classification [23]: 1 A450 class
Classification [24]: 2 A450 class
Classification [25]: 1 A450 class
Classification [26]: 1 A450 class
Classification [27]: 2 A450 class
Classification [28]: 3 A450 class
Classification [29]: 2 A450 class
Kd [30]: 2 µM
Kd [31]: 2 µM

RELVDRGEVRQFTLRHWLKV (modifications not checked) [Dopamine transporter]
Kd [32]: 0.3 µM
Classification [11]: 3 A450 class
Classification [33]: 1 A450 class
Classification [34]: 5 A450 class
Classification [35]: 2 A450 class
Classification [21]: 4 A450 class
Classification [36]: 5 A450 class
Classification [28]: 4 A450 class
Classification [37]: 3 A450 class
Kd [38]: 0.9 µM
Kd [39]: 0.3 µM
Kd [40]: 0.9 µM
Kd [30]: 0.4 µM
Kd [31]: 0.4 µM
Kd [41]: 0.4 µM
